Experimental data published in doi:10.1101/2021.12.16.472998 (bioRxiv, 2021).

Columns and labels:
[1] = target: recombinant hFc-LY6S-iso1 fusion protein (Homo sapiens, UniProt P0DTL4); test: immunoblot
[2] = target: native LY6S-iso1 protein (hLY6S-E, with its endogenous signal peptide) expressed in HEK293 cells (Homo sapiens, UniProt P0DTL4); test: immunostaining of cells or tissue
[3] = target: endogenous LY6S-iso1 protein in human spleen cells (Homo sapiens, UniProt P0DTL4); test: immunostaining of cells or tissue

Measured: binding result

Sequence of recombinant hFc-LY6S-iso1 fusion protein (P0DTL4 27-134): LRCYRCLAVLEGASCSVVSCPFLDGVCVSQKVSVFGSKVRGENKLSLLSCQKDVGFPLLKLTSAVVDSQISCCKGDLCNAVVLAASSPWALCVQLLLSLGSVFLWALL
Sequence of native LY6S-iso1 protein (hLY6S-E, with its endogenous signal peptide) expressed in HEK293 cells (P0DTL4 27-134): as above
Sequence of endogenous LY6S-iso1 protein in human spleen cells (P0DTL4 27-134): as above

B1: anti-LY6S-iso1 monoclonal antibody 5E12 (antibody, V domains shown)
VH: QVQLKQSGAELVRPGASVKLSCKAWGYTFTGYEMHWVKQTPVHGLEWIGAIYPGSGGTAYNQKFKGQATLTVDKSSNTAYIELSSLTSEDSAVYYCTVYDFWGQGTTLTVSS
VL: DVVMTQTPLSLPVGLGDHASISCRSSQSLLKSDGNTYLHWYLQKSGQSPKLLIYKVSNRFSGVPDRFSGSGSGTDFTLKISRVEAEDLGVYFCSQSTHVPYTFGGGTKLEIK
binds: all assays above
